Results as given in paper PMC12373829 (Nature Communications, 2025).

Columns and labels:
[1] = target: T1, acarbose-preferred glucosidase (Apg) (Klebsiella grimontii, UniProt A0ABD7ANA7, DEL138-152); assay: X-ray crystal structure; assay type: binding
T1 sequence (A0ABD7ANA7 1-605 DEL138-152): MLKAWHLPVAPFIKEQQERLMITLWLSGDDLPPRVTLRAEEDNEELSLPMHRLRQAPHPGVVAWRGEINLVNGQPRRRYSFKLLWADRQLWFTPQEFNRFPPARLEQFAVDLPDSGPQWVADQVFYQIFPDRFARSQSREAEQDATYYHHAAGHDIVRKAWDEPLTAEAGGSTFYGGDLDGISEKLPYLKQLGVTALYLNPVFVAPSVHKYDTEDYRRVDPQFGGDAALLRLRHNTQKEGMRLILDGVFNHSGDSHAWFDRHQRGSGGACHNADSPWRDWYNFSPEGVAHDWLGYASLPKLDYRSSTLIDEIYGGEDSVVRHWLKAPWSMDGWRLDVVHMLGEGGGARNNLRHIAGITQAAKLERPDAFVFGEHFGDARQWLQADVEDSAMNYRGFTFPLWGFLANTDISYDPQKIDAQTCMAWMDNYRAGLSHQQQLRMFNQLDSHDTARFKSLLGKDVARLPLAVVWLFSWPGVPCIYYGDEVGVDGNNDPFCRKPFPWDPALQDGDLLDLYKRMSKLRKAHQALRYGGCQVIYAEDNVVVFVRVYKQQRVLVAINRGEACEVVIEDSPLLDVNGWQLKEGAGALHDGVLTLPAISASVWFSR

[2] = target: acarbose-preferred glucosidase (Apg), wild type (K. grimontii TD1); assay: SEC
[3] = substrate: C[C@H]1O[C@H](O[C@H]2[C@H](O)[C@@H](O)[C@@H](O[C@H]3[C@H](O)[C@@H](O)C(O)O[C@@H]3CO)O[C@@H]2CO)[C@H](O)[C@@H](O)[C@@H]1N[C@H]1C=C(CO)[C@@H](O)[C@H](O)[C@H]1O; assay: purified protein; conditions: active site; D448 nucleophile, E373/R334 proton donor
[4] = substrate: C[C@H]1O[C@H](O[C@H]2[C@H](O)[C@@H](O)[C@@H](O)O[C@@H]2CO)[C@H](O)[C@@H](O)[C@@H]1N[C@H]1C=C(CO)[C@@H](O)[C@H](O)[C@H]1O; assay: purified protein; conditions: active site

With `OC[C@H]1O[C@H](O)[C@H](O)[C@@H](O)[C@@H]1O` [glucose] the “X-ray crystal structure (co-crystallization)” value [1] was “Crystals of the glucose complex were obtained by co-crystallization of the ∆loop A mutant”.

For “acarbose-preferred glucosidase (Apg), wild type (enzyme)”, the stoichiometry N [2] was 2.

B1: acarbose-preferred glucosidase (Apg) (Klebsiella grimontii) (protein)
chain: MLKAWHLPVAPFIKEQQERLMITLWLSGDDLPPRVTLRAEEDNEELSLPMHRLRQAPHPGVVAWRGEINLVNGQPRRRYSFKLLWADRQLWFTPQEFNRFPPARLEQFAVDLPDSGPQWVADQVFYQIFPDRFARSQSREAEQDATYYHHAAGHDIVRKAWDEPLTAEAGGSTFYGGDLDGISEKLPYLKQLGVTALYLNPVFVAPSVHKYDTEDYRRVDPQFGGDAALLRLRHNTQKEGMRLILDGVFNHSGDSHAWFDRHQRGSGGACHNADSPWRDWYNFSPEGVAHDWLGYASLPKLDYRSSTLIDEIYGGEDSVVRHWLKAPWSMDGWRLDVVHMLGEGGGARNNLRHIAGITQAAKLERPDAFVFGEHFGDARQWLQADVEDSAMNYRGFTFPLWGFLANTDISYDPQKIDAQTCMAWMDNYRAGLSHQQQLRMFNQLDSHDTARFKSLLGKDVARLPLAVVWLFSWPGVPCIYYGDEVGVDGNNDPFCRKPFPWDPALQDGDLLDLYKRMSKLRKAHQALRYGGCQVIYAEDNVVVFVRVYKQQRVLVAINRGEACEVVIEDSPLLDVNGWQLKEGAGALHDGVLTLPAISASVWFSR
B1 was tested, and the Km [3] was 2.600 ± 0.652 µM and the Km [4] was 6.642 ± 0.371 µM.
